The source of these data is patent publication US20170145112A1 (Genentech, published 2017).

The target of test [1] is T1, Human complement Factor D, mature (human, UniProt P00746 27-253). Put plainly: cell-based or functional assay.
For test [2], the target named is T1, Human complement Factor D, mature. Put plainly: SPR, Fab captured by anti-huFab, human Factor D injected.
Procedure: (§1) Kinetics and binding constant KD for Factor D binding to immobilized hu20D12 versions was determined by surface plasmon resonance (SPR) measurements on a Biacore®T200 instrument. […] After subtraction of the sensorgram observed for injection of running buffer, data were analyzed according to a 1:1 model using BiaEval software v4.1 (GE Healthcare) to extract the kinetics and affinity constants.
Test [3] has the same target. Put plainly: cell-based or functional assay. The source holds these as a separate data set.
Test [4] has the same target. Kind of test: SPR, Biacore T200, IgG captured by anti-Fc, human factor D injected.
For test [5] the target is unchanged. Kind of test: cell-based or functional assay. The source holds these as a separate data set.
Target sequence in this assay (P00746 27-253): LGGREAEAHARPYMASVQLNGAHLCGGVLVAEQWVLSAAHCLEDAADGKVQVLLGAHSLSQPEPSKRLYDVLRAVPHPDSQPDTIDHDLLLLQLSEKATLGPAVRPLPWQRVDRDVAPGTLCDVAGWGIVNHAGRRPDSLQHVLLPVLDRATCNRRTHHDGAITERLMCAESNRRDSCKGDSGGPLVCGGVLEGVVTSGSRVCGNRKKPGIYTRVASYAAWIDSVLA
Test [6] has the same target. Kind of test: SPR (Biacore T200): Fab captured with anti-huFab kit, human Factor D injected, 25 C, 1:1 model.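 Note: sensorgrams were corrected by subtracting a blank injection of running buffer before fitting kinetic and affinity constants.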
Procedure: as §1
Test [7] has as its target T2, Cynomolgus monkey complement Factor D (cynomolgus monkey, UniProt P00746 26-253 (human entry)).
T2 construct: also called cyfD; cFD
T2 chain: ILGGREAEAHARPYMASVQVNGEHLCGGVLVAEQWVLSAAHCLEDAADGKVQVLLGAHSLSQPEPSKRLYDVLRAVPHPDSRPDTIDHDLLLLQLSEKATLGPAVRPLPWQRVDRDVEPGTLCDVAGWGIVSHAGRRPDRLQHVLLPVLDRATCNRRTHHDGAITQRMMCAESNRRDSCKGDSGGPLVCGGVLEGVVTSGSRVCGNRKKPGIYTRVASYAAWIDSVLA
Put plainly: SPR, cynomolgus monkey factor D.

Test [8] addresses T1, Human complement Factor D, mature. Kind of test: SPR, Fab captured by anti-huFab, human Factor D injected. This is another data set of the same source.
The target is the same in test [9]. Kind of test: SPR, at the limit of detection.
Target sequence in this assay (P00746 27-253): as the sequence (P00746 27-253) above
Procedure: as §1
Test [10] has the same target. Put plainly: cell-based or functional assay. This is another data set of the same source.
Test [11] deals with T2, Cynomolgus monkey complement Factor D. Kind of test: SPR (Biacore T200), Fab format; cynomolgus Factor D (column 'KD (pM) cFD (cyno)').
In test [12] the target is T1, Human complement Factor D, mature. Kind of test: cell-based or functional assay. This is another data set of the same source.
Target sequence in this assay (P00746 27-253): as the sequence (P00746 27-253) above
For test [13] the target is unchanged. Kind of test: cell-based or functional assay. This is another data set of the same source.
Test [14] shares this target. Put plainly: SPR (refers to FIG. 11); hu20D12.v2.0.
Procedure: as §1

Positions count from the first letter of the chain named. Numbers in names are those of the source.

B1: hu20D12.v1 Fab (Fab, V domains shown)
VH: EVQLVQSGAEVKKPGASVKVSCKASGYTFTSYYMYWVRQAPGQGLEWIGEINPTNGGTNFNEKFKSRATLTVDTSTSTAYLELSSLRSEDTAVYYCAREGGFAYWGQGTLVTVSS
VL: DIQMTQSPSSLSASVGDRVTITCKASQNVDTDVAWFQQKPGKAPKGLIYSASSRYSGVPSRFSGSGSGTDFTLTISSLQPEDFATYYCQQYNNYPLTFGQGTKVEIKR
notes: Fab expressed in E. coli
For the molecule B1, the “IC50 Hemolysis” value in test [1] stood at 2.8 nM. Besides, the Kd in test [2] came out at 0.033 nM.

B2: hu20D12.v1 IgG (antibody, V domains shown)
VH: B1 VH
VL: DIQMTQSPSSLSASVGDRVTITCKASQNVDTDVAWFQQKPGKAPKGLIYSASSRYSGVPSRFSGSGSGTDFTLTISSLQPEDFATYYCQQYNNYPLTFGQGTKVEIK
notes: Expressed as full length IgG in CHO cells
On to B2, for which the “Hemolysis IC50” value in [3] is 4.3 nM. In test [4], this molecule yielded a Kd of 0.046 nM, a koff of 0.00067 s⁻¹ and a kon of 1.5e+07 M⁻¹ s⁻¹.

B3: hu20D12.v2.1 Fab (Fab, V domains shown)
VH: B1 VH with N55S
VL: B1 VL with Y49R
Take B3: in test [5], the “IC50, TR-FRET assay of Factor D (50 pM) cleavage of factor B” value came out at 32 pM. Moreover, in test [6], the Kd is less than 0.01 nM, the koff turned out to be 8.1e-05 s⁻¹ and the kon was determined as 1.2e+07 M⁻¹ s⁻¹. In test [7], binding was put at a Kd of 0.017 nM, the “fold improvement of affinity relative to hu20D12.v2.0” value is approximately 10 fold and the “fold improvement of affinity relative to lampalizumab” value is 2 fold. In test [8], the “fold improvement in binding relative to hu20D12.v2.0” value was not below 4 fold. The same molecule returned a Kd in test [9] of approximately 0.01 nM. Also, in test [10], the “FRET IC50 (TR-FRET assay of Factor D-dependent factor B activation), value 1 of 2 in the cell” value was determined as 0.033 nM and the “FRET IC50 (TR-FRET assay of Factor D-dependent factor B activation), value 2 of 2 in the cell” value came out at 0.032 nM.

B4: hu20D12.v2.3 Fab (Fab, V domains shown)
VH: B1 VH with T54Y, N55S, G57D
VL: B1 VL with Y49R
B4: the “IC50, TR-FRET assay of Factor D (50 pM) cleavage of factor B” value in test [5] came out at 31 pM. Also, in test [6], the Kd was less than 0.01 nM, the koff was 2.9e-05 s⁻¹ and the kon was 1.2e+07 M⁻¹ s⁻¹. In test [11], the Kd came to 0.024 nM. The Kd in [9] is approximately 0.01 nM. Further, in [10], the “FRET IC50 (TR-FRET assay of Factor D-dependent factor B activation), value 1 of 3 in the cell” value came to 0.025 nM; the “FRET IC50 (TR-FRET assay of Factor D-dependent factor B activation), value 2 of 3 in the cell” value amounted to 0.031 nM; the “FRET IC50 (TR-FRET assay of Factor D-dependent factor B activation), value 3 of 3 in the cell” value stood at 0.031 nM. Moreover, in test [12], the “AVG IC50 (pM), TR-FRET assay of Factor D-dependent factor B activation” value came to 31.2 pM.

B5: hu20D12.v1.1 Fab (Fab, V domains shown)
VH: B1 VH with N55Q
VL: B1 VL
notes: Fab expressed in E. coli; also called Hu20D12.v1.N54Q
With B5, the “IC50 Hemolysis” value in [1] worked out at 6.7 nM. In test [2], this molecule yielded a Kd of 0.045 nM.

B6: hu20D12.v2.0 Fab (Fab, V domains shown)
VH: B1 VH with N55S
VL: B1 VL
notes: Fab expressed in E. coli; also called Hu20D12.v1.N54S; hu20D12.v1.N54S
Consider B6, for which the “IC50 Hemolysis” value in test [1] was 4.7 nM. The dissociation constant Kd in test [2] stood at 0.04 nM. In [6], this molecule came in with a koff of 0.00055 s⁻¹ and a kon of 1.4e+07 M⁻¹ s⁻¹. The molecule further came in with a Kd in [11] of 0.152 nM. Besides, the “IC50 in the TR-FRET assay, fold against lampalizumab” value in test [13] was approximately 2 fold. This molecule also had a Kd in test [14] of 0.039 nM. In addition, in test [10], the “FRET IC50 (TR-FRET assay of Factor D-dependent factor B activation), value 1 of 2 in the cell” value was 0.051 nM and the “FRET IC50 (TR-FRET assay of Factor D-dependent factor B activation), value 2 of 2 in the cell” value was 0.059 nM. Moreover, the “AVG IC50 (pM), TR-FRET assay of Factor D-dependent factor B activation” value in test [12] was 59.2 pM.

B7: murine 20D12 (mu20D12) IgG (antibody, V domains shown)
VH: QVQLQQSGAELVKPGASVKLSCKASGYTFTSYYMYWVKERPGQGLEWIGEINPTNGGTNFNEKFKSKATLTVDTSSNTAYMQLSSLTSEDSAVYYCAREGGFAYWGQGTLVTVSA
VL: DIVMTQSQKFMSTSVGDRVSVTCKASQNVDTDVAWFQQKPGQSPRGLIYSASSRYSGVPDRFTGSGSGTDFTLTISNVQSEDLAEYFCQQYNNYPLTFGSGTKVEIK
notes: IgG format, mouse antibody
On to B7, for which the “Hemolysis IC50” value in test [3] was 4 nM. Moreover, in test [4], the Kd turned out to be 0.066 nM, the koff came out at 0.00039 s⁻¹ and the kon was 5.9e+06 M⁻¹ s⁻¹.
